Data reported in US20110300138A1 (published 2011).
Read-outs that look alike come from different tables or passages of the source.

Experiments:
[1] = biological target: human TSH receptor (full length, wild type) expressed in CHO cells (human) (UniProt P16473); assay: cell-based or functional assay
TSHR260-AP (human) [2] = assay: TSHR260-AP bridge ELISA (full length TSHR on wells, TSHR260-AP in solution); IgG 250 µg/mL diluted in assay buffer
TSHR260-AP (human) [3] = assay: TSHR260-AP bridge ELISA (full length TSHR on wells, TSHR260-AP in solution); IgG 0.5 µg/mL diluted in HBD serum
[4] = biological target: TSHR260-alkaline phosphatase (TSHR260-AP) (human) (UniProt P05187); assay: TSHR260-AP bridge ELISA, full length TSHR on wells; 10 µg/mL, diluted in assay buffer
TSHR260-AP (human) [5] = assay: TSHR260-AP bridge ELISA (full length TSHR on wells, TSHR260-AP in solution); IgG 0.01 µg/mL diluted in HBD serum
[6] = biological target: TSHR260-alkaline phosphatase (TSHR260-AP) (human) (UniProt P05187); assay: TSHR260-AP bridge ELISA, full length TSHR on wells; 1 µg/mL, diluted in assay buffer
[7] = biological target: human TSHR (wild type, full length) expressed in CHO cells (human) (UniProt P16473); assay: cell-based or functional assay
[8] = biological target: TSHR260-alkaline phosphatase (TSHR260-AP) (human) (UniProt P05187); assay: TSHR260-AP bridge ELISA, full length TSHR on wells; 0.05 µg/mL, diluted in assay buffer
[9] = biological target: TSHR260-alkaline phosphatase (TSHR260-AP) (human) (UniProt P05187); assay: TSHR260-AP bridge ELISA, full length TSHR on wells; 0.5 µg/mL, diluted in assay buffer
[10] = biological target: human TSHR (wild type, full length) expressed in CHO cells (human) (UniProt P16473); assay: cell-based or functional assay; remark: listed apart in the source
[11] = biological target: human TSH receptor (TSHR), wild type, expressed in CHO cells (human) (UniProt P16473); assay: cell-based or functional assay
[12] = biological target: TSHR260-alkaline phosphatase (TSHR260-AP) (human) (UniProt P05187); assay: TSHR260-AP bridge ELISA, full length TSHR on wells; 0.01 µg/mL, diluted in HBD
TSHR260-AP (human) [13] = assay: TSHR260-AP bridge ELISA (full length TSHR on wells, TSHR260-AP in solution); IgG 0.5 µg/mL diluted in assay buffer
TSHR260-AP (human) [14] = assay: TSHR260-AP bridge ELISA (full length TSHR on wells, TSHR260-AP in solution); IgG 0.1 µg/mL diluted in assay buffer
TSHR260-AP (human) [15] = assay: TSHR260-AP bridge ELISA (full length TSHR on wells, TSHR260-AP in solution); IgG 0.1 µg/mL diluted in HBD serum
TSHR260-AP (human) [16] = assay: TSHR260-AP bridge ELISA (full length TSHR on wells, TSHR260-AP in solution); IgG 0.005 µg/mL diluted in assay buffer
[17] = biological target: human TSHR (wild type, full length) expressed in CHO cells (human) (UniProt P16473); assay: cell-based or functional assay; remark: listed apart in the source
TSHR260-AP (human) [18] = assay: TSHR260-AP bridge ELISA (full length TSHR on wells, TSHR260-AP in solution); IgG 250 µg/mL diluted in HBD serum
[19] = biological target: TSHR260-alkaline phosphatase (TSHR260-AP) (human) (UniProt P05187); assay: TSHR260-AP bridge ELISA, full length TSHR on wells; 0.01 µg/mL, diluted in assay buffer
TSHR260-AP (human) [20] = assay: TSHR260-AP bridge ELISA (full length TSHR on wells, TSHR260-AP in solution); IgG 0.005 µg/mL diluted in HBD serum
TSHR260-AP (human) [21] = assay: TSHR260-AP bridge ELISA (full length TSHR on wells, TSHR260-AP in solution); IgG 1 µg/mL diluted in HBD serum

- % Inhibition; T7 serum + 100 µg/mL 5C9 IgG [1]: 97.7%
- % Inhibition; T8 serum + 100 µg/mL 5C9 IgG [1]: 97.9%
- % Inhibition; T9 serum + 100 µg/mL 5C9 IgG [1]: 94.7%
- Cyclic AMP concentration; HBD + 100 µg/mL 5C9 IgG [1]: 2.7 pmol/mL
- Cyclic AMP concentration; T7 serum + 100 µg/mL 5C9 IgG [1]: 2.1 pmol/mL
- Cyclic AMP concentration; T8 serum + 100 µg/mL 5C9 IgG [1]: 1.8 pmol/mL
- Cyclic AMP concentration; T9 serum + 100 µg/mL 5C9 IgG [1]: 3 pmol/mL
- Mean absorbance at 405 nm (absorbance at 405 nm) (TSHR260-AP (human) [2]): 1.12
- Mean absorbance at 405 nm (absorbance at 405 nm) (TSHR260-AP (human) [3]): 0.016
- Mean absorbance at 405 nm (absorbance at 405 nm) [4]: 0.099
- Mean absorbance at 405 nm (absorbance at 405 nm) (TSHR260-AP (human) [5]): 0.017
- Mean absorbance at 405 nm (absorbance at 405 nm) [6]: 0.011
- % Inhibition of T13 serum stimulation; 100 µg/mL 5C9 IgG [7]: 97.5%
- % Inhibition of T14 serum stimulation; 100 µg/mL 5C9 IgG [7]: 94.9%
- % Inhibition of T15 serum stimulation; 100 µg/mL 5C9 IgG [7]: 96.9%
- Cyclic AMP concentration; 100 µg/mL 5C9 IgG alone [7]: 0.9 pmol/mL
- Cyclic AMP concentration; HBD + 100 µg/mL 5C9 IgG [7]: 1 pmol/mL
- Cyclic AMP concentration; T13 serum + 100 µg/mL 5C9 IgG [7]: 1.2 pmol/mL
- Cyclic AMP concentration; T14 serum + 100 µg/mL 5C9 IgG [7]: 1.4 pmol/mL
- Cyclic AMP concentration; T15 serum + 100 µg/mL 5C9 IgG [7]: 1.6 pmol/mL
- Mean absorbance at 405 nm (absorbance at 405 nm) [8]: -0.008
- Mean absorbance at 405 nm (absorbance at 405 nm) [9]: -0.005
- % Inhibition of T5 serum stimulation; 0.01 µg/mL 5C9 IgG [10]: 17.2%
- % Inhibition of T5 serum stimulation; 0.1 µg/mL 5C9 IgG [10]: 91.2%
- % Inhibition of T5 serum stimulation; 1 µg/mL 5C9 IgG [10]: 97.8%
- % Inhibition of T5 serum stimulation; 10 µg/mL 5C9 IgG [10]: 98.9%
- % Inhibition of T5 serum stimulation; 100 µg/mL 5C9 IgG [10]: 98.9%
- Cyclic AMP concentration; 0.01 µg/mL 5C9 IgG + T5 [10]: 52.9 pmol/mL
- Cyclic AMP concentration; 0.1 µg/mL 5C9 IgG + T5 [10]: 5.6 pmol/mL
- Cyclic AMP concentration; 1 µg/mL 5C9 IgG + T5 [10]: 1.4 pmol/mL
- Cyclic AMP concentration; 10 µg/mL 5C9 IgG + T5 [10]: 0.7 pmol/mL
- Cyclic AMP concentration; 100 µg/mL 5C9 IgG + T5 [10]: 0.7 pmol/mL
- Cyclic AMP concentration; 100 µg/mL 5C9 IgG alone [10]: 1.1 pmol/mL
- % Inhibition of constitutive activity; 0.001 µg/mL 5C9 IgG [11]: 0%
- % Inhibition of constitutive activity; 0.01 µg/mL 5C9 IgG [11]: 1%
- % Inhibition of constitutive activity; 0.1 µg/mL 5C9 IgG [11]: 13%
- % Inhibition of constitutive activity; 0.3 µg/mL 5C9 IgG [11]: 50%
- % Inhibition of constitutive activity; 1 µg/mL 5C9 IgG [11]: 61%
- % Inhibition of constitutive activity; 3 µg/mL 5C9 IgG [11]: 63%
- % Inhibition of constitutive activity; 10 µg/mL 5C9 IgG [11]: 56%
- % Inhibition of constitutive activity; 100 µg/mL 5C9 IgG [11]: 52%
- Cyclic AMP concentration (constitutive activity); 0.001 µg/mL 5C9 IgG [11]: 19.1 pmol/mL
- Cyclic AMP concentration (constitutive activity); 0.01 µg/mL 5C9 IgG [11]: 18.6 pmol/mL
- Cyclic AMP concentration (constitutive activity); 0.1 µg/mL 5C9 IgG [11]: 16.3 pmol/mL
- Cyclic AMP concentration (constitutive activity); 0.3 µg/mL 5C9 IgG [11]: 9.3 pmol/mL
- Cyclic AMP concentration (constitutive activity); 1 µg/mL 5C9 IgG [11]: 7.4 pmol/mL
- Cyclic AMP concentration (constitutive activity); 3 µg/mL 5C9 IgG [11]: 6.9 pmol/mL
- Cyclic AMP concentration (constitutive activity); 10 µg/mL 5C9 IgG [11]: 8.3 pmol/mL
- Cyclic AMP concentration (constitutive activity); 100 µg/mL 5C9 IgG [11]: 9 pmol/mL
- Mean absorbance at 405 nm (absorbance at 405 nm) [12]: 0.017
- Mean absorbance at 405 nm (absorbance at 405 nm) (TSHR260-AP (human) [13]): -0.005
- Mean absorbance at 405 nm (absorbance at 405 nm) (TSHR260-AP (human) [14]): -0.013
- Mean absorbance at 405 nm (absorbance at 405 nm) (TSHR260-AP (human) [15]): -0.005
- Mean absorbance at 405 nm (absorbance at 405 nm) (TSHR260-AP (human) [16]): -0.009
- % Inhibition of T8 serum stimulation; 0.01 µg/mL 5C9 IgG [17]: 0%
- % Inhibition of T8 serum stimulation; 0.1 µg/mL 5C9 IgG [17]: 91%
- % Inhibition of T8 serum stimulation; 1 µg/mL 5C9 IgG [17]: 96%
- % Inhibition of T8 serum stimulation; 10 µg/mL 5C9 IgG [17]: 97%
- % Inhibition of T8 serum stimulation; 100 µg/mL 5C9 IgG [17]: 97%
- Cyclic AMP concentration; 0.01 µg/mL 5C9 IgG + T8 [17]: 53.7 pmol/mL
- Cyclic AMP concentration; 0.1 µg/mL 5C9 IgG + T8 [17]: 4.6 pmol/mL
- Cyclic AMP concentration; 1 µg/mL 5C9 IgG + T8 [17]: 2.2 pmol/mL
- Cyclic AMP concentration; 10 µg/mL 5C9 IgG + T8 [17]: 1.7 pmol/mL
- Cyclic AMP concentration; 100 µg/mL 5C9 IgG + T8 [17]: 1.7 pmol/mL
- Cyclic AMP concentration; 100 µg/mL 5C9 IgG alone [17]: 1.2 pmol/mL
- Mean absorbance at 405 nm (absorbance at 405 nm) (TSHR260-AP (human) [18]): 0.058
- Mean absorbance at 405 nm (absorbance at 405 nm) [19]: -0.001
- Mean absorbance at 405 nm (absorbance at 405 nm) (TSHR260-AP (human) [20]): 0.02
- Mean absorbance at 405 nm (absorbance at 405 nm) (TSHR260-AP (human) [21]): 0.045
B1: 5C9 IgG (antibody, from another filing, V domains shown)
VH: EVQLVESGGGLIQPGGSLRLSCAASGFTVSSNYMSWVRQAPGKGLEWVSVTYSGGSTSYADSVKGRFTISRDNSKNTLYLQMNSLRAEDTAVYYCARGGRYCSSISCYARSGCDYWGQGTLVTVSS
VL: AIQMTQSPSSLSASVGDRVTITCRASQSISNYLNWYQQKPGKAPKLLIYAASSLQSGVPSRFSGSGSGTDFTLTISSLQPEDFATYYCQQSYSSPSTTFGQGTKLEIK
